According to the supplement of paper PMC11246515:
± gives the standard deviation of the averaged measurements.

Assay: total protein half-life in vivo (active degradation + dilution); higher = more stable protein
[1] = E. coli NCM3722 delta-lon, growth: N-lim chemostat, doubling time 6 h
[2] = wild type E. coli NCM3722, growth: C-lim chemostat, doubling time 3 h
[3] = wild type E. coli NCM3722, growth: N-lim chemostat, doubling time 6 h
[4] = E. coli NCM3722 delta-clpP delta-lon delta-hslV, growth: N-lim chemostat, doubling time 6 h
[5] = E. coli NCM3722 delta-clpP, growth: N-lim chemostat, doubling time 6 h
[6] = E. coli NCM3722 delta-hslV, growth: N-lim chemostat, doubling time 6 h
[7] = E. coli NCM3722 delta-smpB, growth: N-lim chemostat, doubling time 6 h
[8] = wild type E. coli NCM3722, growth: C-lim chemostat, doubling time 6 h
[9] = wild type E. coli NCM3722, growth: C-lim chemostat, doubling time 12 h
[10] = wild type E. coli NCM3722, growth: N-lim chemostat, doubling time 12 h
[11] = wild type E. coli NCM3722, growth: P-lim chemostat, doubling time 6 h
[12] = wild type E. coli NCM3722, growth: P-lim chemostat, doubling time 12 h

Q: Which “total protein half-life in vivo” value [1] does the source give for “MKIITCFKLVPEEQDIVVTPEYTLNFDNADAKISQFDLNAIEAASQLATDDDEIAALTVGGSLLQNSKVRKDVLSRGPHSLYLVQDAQLEHALPLDTAKALAAAIEKIGFDLLIFGEGSGDLYAQQVGLLVGEILQLPVINAVSAIQRQGNTLVIERTLEDDVEVIELSVPAVLCVTSDINVPRIPSMKAILGAGKKPVNQWQASDIDWSQSAPLAELVGIRVPPQTERKHIIIDNDSPEAIAELAEHLKKALN” here?
A: 4.32 h

Q: What about the “total protein half-life in vivo” value [2] of the same sequence?
A: 0.95 h

Q: Which “total protein half-life in vivo” value [3] does the source give for “MKRRLIIAASLFVFNLSSGFAAENIPFSPQPPEIHAGSWVLMDYTTGQILTAGNEHQQRNPASLTKLMTGYVVDRAIDSHRITPDDIVTVGRDAWAKDNPVFVGSSLMFLKEGDRVSVRDLSRGLIVDSGNDACVALADYIAGGQRQFVEMMNNYAEKLHLKDTHFETVHGLDAPGQHSSAYDLAVLSRAIIHGEPEFYHMYSEKSLTWNGITQQNRNGLLWDKTMNVDGLKTGHTSGAGFNLIASAVDGQRRLIAVVMGADSAKGREEEARKLLRWGQQNFTTVQILHRGKKVGTERIWYGDKENIDLGTEQEFWMVLPKAEIPHIKAKYTLDGKELTAPISAHQRVGEIELYDRDKQVAHWPLVTLESVGEGSMFSRLSDYFHHKA” here?
A: 7.4 h

Q: What does the source list for “MQNTTHDNVILELTVRNHPGVMTHVCGLFARRAFNVEGILCLPIQDSDKSHIWLLVNDDQRLEQMISQIDKLEDVVKVQRNQSDPTMFNKIAVFFQ [P0ADF8]”?
A: total protein half-life in vivo [4]: 5.25 ± 2.1 h; total protein half-life in vivo [5]: 1.6 ± 0.35 h; total protein half-life in vivo [6]: 1.74 ± 0.22 h; total protein half-life in vivo [1]: 2.35 h; total protein half-life in vivo [7]: 1.62 ± 0.038 h; total protein half-life in vivo [2]: 2.47 ± 0.37 h; total protein half-life in vivo [8]: 3.63 ± 0.07 h; total protein half-life in vivo [9]: 4.56 ± 0.67 h; total protein half-life in vivo [3]: 1.447 ± 0.0047 h; total protein half-life in vivo [10]: 2.29 ± 0.29 h; total protein half-life in vivo [11]: 2.71 ± 0.66 h; total protein half-life in vivo [12]: 5.91 ± 0.75 h

Q: With “MSNTDASGEKRVTGTSERREQIIQRLRQQGSVQVNDLSALYGVSTVTIRNDLAFLEKQGIAVRAYGGALICDSTTPSVEPSVEDKSALNTAMKRSVAKAAVELIQPGHRVILDSGTTTFEIARLMRKHTDVIAMTNGMNVANALLEAEGVELLMTGGHLRRQSQSFYGDQAEQSLQNYHFDMLFLGVDAIDLERGVSTHNEDEARLNRRMCEVAERIIVVTDSSKFNRSSLHKIIDTQRIDMIIVDEGIPADSLEGLRKAGVEVILVGE [P0ACK2]” as the sequence, how does the “total protein half-life in vivo” value [5] read?
A: 6.24 ± 1 h

Q: And the “total protein half-life in vivo” value [6]?
A: 4.83 ± 0.21 h

Q: What about the “total protein half-life in vivo” value [1] of the same sequence?
A: 5.24 ± 0.27 h

Q: What about the “total protein half-life in vivo” value [7] of the same sequence?
A: 5.04 ± 0.56 h

Q: And the “total protein half-life in vivo” value [2]?
A: 3.02 ± 0.15 h

Q: And the “total protein half-life in vivo” value [8]?
A: 5.31 ± 0.35 h

Q: What about the “total protein half-life in vivo” value [9] of the same sequence?
A: 9.94 ± 0.52 h

Q: And the “total protein half-life in vivo” value [3]?
A: 4.89 ± 0.46 h

Q: What about the “total protein half-life in vivo” value [10] of the same sequence?
A: 9.31 ± 0.91 h

Q: And the “total protein half-life in vivo” value [11]?
A: 5.05 ± 0.16 h

Q: What about the “total protein half-life in vivo” value [12] of the same sequence?
A: 9.52 ± 1.1 h

Q: With “MDYVCSVVFICQSFDLIINRRVISFKKNSLFIVSDKIRRELPVCPSKLRIVDIDKKTCLSFFIDVNNELPGKFTLDKNGYIAEEEPPLSLVFSLFEGIKIADSHSLWLKERLCISLLAMFKKRESVNSFILTNINTFTCKITGIISFNIERQWHLKDIAELIYTSESLIKKRLRDEGTSFTEILRDTRMRYAKKLITSNSYSINVVAQKCGYNSTSYFICAFKDYYGVTPSHYFEKIIGVTDGINKTID” as the sequence, how does the “total protein half-life in vivo” value [4] read?
A: 5.39 ± 1.1 h

Q: What about the “total protein half-life in vivo” value [5] of the same sequence?
A: 3.62 ± 0.73 h

Q: What about the “total protein half-life in vivo” value [6] of the same sequence?
A: 3.65 ± 0.5 h

Q: And the “total protein half-life in vivo” value [7]?
A: 3.18 ± 0.42 h

Q: And the “total protein half-life in vivo” value [2]?
A: 2.27 ± 0.2 h

Q: What about the “total protein half-life in vivo” value [8] of the same sequence?
A: 4.11 ± 0.32 h

Q: What about the “total protein half-life in vivo” value [9] of the same sequence?
A: 6.14 h

Q: And the “total protein half-life in vivo” value [3]?
A: 2.95 h

Q: What about the “total protein half-life in vivo” value [10] of the same sequence?
A: 5.67 ± 0.64 h

Q: What about the “total protein half-life in vivo” value [11] of the same sequence?
A: 3.89 ± 0.38 h

Q: What about the “total protein half-life in vivo” value [12] of the same sequence?
A: 7.61 ± 2.4 h

Q: For “MNNSAFTFQTLHPDTIMDALFEHGIRVDSGLTPLNSYENRVYQFQDEDRRRFVVKFYRPERWTADQILEEHQFALQLVNDEVPVAAPVAFNGQTLLNHQGFYFAVFPSVGGRQFEADNIDQMEAVGRYLGRMHQTGRKQLFIHRPTIGLNEYLIEPRKLFEDATLIPSGLKAAFLKATDELIAAVTAHWREDFTVLRLHGDCHAGNILWRDGPMFVDLDDARNGPAVQDLWMLLNGDKAEQRMQLETIIEAYEEFSEFDTAEIGLIEPLRAMRLVYYLAWLMRRWADPAFPKNFPWLTGEDYWLRQTATFIEQAKVLQEPPLQLTPMY [P0C0K3]”, which “total protein half-life in vivo” value [4] is on record?
A: 3.88 ± 0.5 h

Q: What about the “total protein half-life in vivo” value [5] of the same sequence?
A: 5.41 ± 1.8 h

Q: And the “total protein half-life in vivo” value [6]?
A: 4.37 ± 0.62 h

Q: And the “total protein half-life in vivo” value [1]?
A: 4.43 ± 0.29 h

Q: What about the “total protein half-life in vivo” value [7] of the same sequence?
A: 4.22 ± 0.26 h

Q: What about the “total protein half-life in vivo” value [2] of the same sequence?
A: 2.99 ± 0.046 h

Q: What about the “total protein half-life in vivo” value [8] of the same sequence?
A: 5.38 ± 0.61 h

Q: And the “total protein half-life in vivo” value [9]?
A: 10.3 ± 1.3 h

Q: And the “total protein half-life in vivo” value [3]?
A: 4.23 ± 0.21 h

Q: And the “total protein half-life in vivo” value [10]?
A: 6.67 ± 0.66 h

Q: What about the “total protein half-life in vivo” value [11] of the same sequence?
A: 6.02 ± 0.38 h

Q: And the “total protein half-life in vivo” value [12]?
A: 10.3 ± 0.64 h

Q: What does the source list for “MRLCDRDIEAWLDEGRLSINPRPPVERINGATVDVRLGNKFRTFRGHTAAFIDLSGPKDEVSAALDRVMSDEIVLDEGEAFYLHPGELALAVTLESVTLPADLVGWLDGRSSLARLGLMVHVTAHRIDPGWSGCIVLEFYNSGKLPLALRPGMLIGALSFEPLSGPAVRPYNRREDAKYRNQQGAVASRIDKD”?
A: total protein half-life in vivo [4]: 3.92 ± 0.54 h; total protein half-life in vivo [5]: 3.36 ± 0.25 h; total protein half-life in vivo [6]: 3.062 ± 0.021 h; total protein half-life in vivo [1]: 4.56 ± 1.7 h; total protein half-life in vivo [7]: 3.14 ± 0.53 h; total protein half-life in vivo [2]: 2.852 ± 0.011 h; total protein half-life in vivo [8]: 4.81 ± 0.3 h; total protein half-life in vivo [9]: 7.69 ± 0.16 h; total protein half-life in vivo [3]: 3.17 ± 0.19 h; total protein half-life in vivo [10]: 4.96 ± 0.52 h; total protein half-life in vivo [11]: 5.25 ± 0.11 h; total protein half-life in vivo [12]: 10.4 ± 0.19 h

Q: Which results are given for “MALPRITQKEMTEREQRELKTLLDRARIAHGRVLTNSETNSIKKDYIDKLMVEREAEAKKARQLKKKQAYKPDPEASFSWSANTSTRGRR”?
A: total protein half-life in vivo [4]: 5.58 ± 1 h; total protein half-life in vivo [6]: 1.79 ± 0.25 h; total protein half-life in vivo [1]: 1.63 h; total protein half-life in vivo [7]: 2.02 h; total protein half-life in vivo [8]: 1.65 h; total protein half-life in vivo [9]: 2.08 h; total protein half-life in vivo [10]: 2.87 ± 0.66 h

Q: With “MLAKRIIPCLDVRDGQVVKGVQFRNHEIIGDIVPLAKRYAEEGADELVFYDITASSDGRVVDKSWVSRVAEVIDIPFCVAGGIKSLEDAAKILSFGADKISINSPALADPTLITRLADRFGVQCIVVGIDTWYDAETGKYHVNQYTGDESRTRVTQWETLDWVQEVQKRGAGEIVLNMMNQDGVRNGYDLEQLKKVREVCHVPLIASGGAGTMEHFLEAFRDADVDGALAASVFHKQIINIGELKAYLATQGVEIRIC” as the sequence, how does the “total protein half-life in vivo” value [4] read?
A: 4.98 ± 0.68 h

Q: What about the “total protein half-life in vivo” value [5] of the same sequence?
A: 4.15 ± 0.38 h

Q: What about the “total protein half-life in vivo” value [6] of the same sequence?
A: 4.45 ± 0.13 h

Q: And the “total protein half-life in vivo” value [1]?
A: 4.83 ± 0.12 h

Q: And the “total protein half-life in vivo” value [7]?
A: 4.317 ± 0.0095 h

Q: And the “total protein half-life in vivo” value [2]?
A: 2.97 ± 0.2 h

Q: What about the “total protein half-life in vivo” value [8] of the same sequence?
A: 5.53 ± 0.17 h

Q: And the “total protein half-life in vivo” value [9]?
A: 9.44 ± 0.28 h

Q: And the “total protein half-life in vivo” value [3]?
A: 4.34 ± 0.0084 h

Q: What about the “total protein half-life in vivo” value [10] of the same sequence?
A: 7.26 ± 0.56 h

Q: And the “total protein half-life in vivo” value [11]?
A: 5.64 ± 0.13 h

Q: And the “total protein half-life in vivo” value [12]?
A: 11.6 ± 0.42 h
